Here are results for 1 substance from publication PMC7152798.

Assay [1] addresses GST-FMRP C-terminus deleted from the last 63 amino acids (mouse). Description: pull-down; GST-fusion proteins made in yeast, immobilised on glutathione sepharose 4B beads and incubated at 4 °C with lysate of tsA-201 cells transfected with CaV2.2/α2δ-1/β1b; washed four times with ice-cold 1% Triton-PBS; blots with CaV2.2 II-III loop Ab and GST Ab; bands quantified as a percentage of CT.

Assay [2] concerns the target GST-FMRP C-terminus deleted from the last 89 amino acids which includes the RGG motif (mouse). The description is as above.

calcium channel CaV2.2, sequence (Q05152 whole entry): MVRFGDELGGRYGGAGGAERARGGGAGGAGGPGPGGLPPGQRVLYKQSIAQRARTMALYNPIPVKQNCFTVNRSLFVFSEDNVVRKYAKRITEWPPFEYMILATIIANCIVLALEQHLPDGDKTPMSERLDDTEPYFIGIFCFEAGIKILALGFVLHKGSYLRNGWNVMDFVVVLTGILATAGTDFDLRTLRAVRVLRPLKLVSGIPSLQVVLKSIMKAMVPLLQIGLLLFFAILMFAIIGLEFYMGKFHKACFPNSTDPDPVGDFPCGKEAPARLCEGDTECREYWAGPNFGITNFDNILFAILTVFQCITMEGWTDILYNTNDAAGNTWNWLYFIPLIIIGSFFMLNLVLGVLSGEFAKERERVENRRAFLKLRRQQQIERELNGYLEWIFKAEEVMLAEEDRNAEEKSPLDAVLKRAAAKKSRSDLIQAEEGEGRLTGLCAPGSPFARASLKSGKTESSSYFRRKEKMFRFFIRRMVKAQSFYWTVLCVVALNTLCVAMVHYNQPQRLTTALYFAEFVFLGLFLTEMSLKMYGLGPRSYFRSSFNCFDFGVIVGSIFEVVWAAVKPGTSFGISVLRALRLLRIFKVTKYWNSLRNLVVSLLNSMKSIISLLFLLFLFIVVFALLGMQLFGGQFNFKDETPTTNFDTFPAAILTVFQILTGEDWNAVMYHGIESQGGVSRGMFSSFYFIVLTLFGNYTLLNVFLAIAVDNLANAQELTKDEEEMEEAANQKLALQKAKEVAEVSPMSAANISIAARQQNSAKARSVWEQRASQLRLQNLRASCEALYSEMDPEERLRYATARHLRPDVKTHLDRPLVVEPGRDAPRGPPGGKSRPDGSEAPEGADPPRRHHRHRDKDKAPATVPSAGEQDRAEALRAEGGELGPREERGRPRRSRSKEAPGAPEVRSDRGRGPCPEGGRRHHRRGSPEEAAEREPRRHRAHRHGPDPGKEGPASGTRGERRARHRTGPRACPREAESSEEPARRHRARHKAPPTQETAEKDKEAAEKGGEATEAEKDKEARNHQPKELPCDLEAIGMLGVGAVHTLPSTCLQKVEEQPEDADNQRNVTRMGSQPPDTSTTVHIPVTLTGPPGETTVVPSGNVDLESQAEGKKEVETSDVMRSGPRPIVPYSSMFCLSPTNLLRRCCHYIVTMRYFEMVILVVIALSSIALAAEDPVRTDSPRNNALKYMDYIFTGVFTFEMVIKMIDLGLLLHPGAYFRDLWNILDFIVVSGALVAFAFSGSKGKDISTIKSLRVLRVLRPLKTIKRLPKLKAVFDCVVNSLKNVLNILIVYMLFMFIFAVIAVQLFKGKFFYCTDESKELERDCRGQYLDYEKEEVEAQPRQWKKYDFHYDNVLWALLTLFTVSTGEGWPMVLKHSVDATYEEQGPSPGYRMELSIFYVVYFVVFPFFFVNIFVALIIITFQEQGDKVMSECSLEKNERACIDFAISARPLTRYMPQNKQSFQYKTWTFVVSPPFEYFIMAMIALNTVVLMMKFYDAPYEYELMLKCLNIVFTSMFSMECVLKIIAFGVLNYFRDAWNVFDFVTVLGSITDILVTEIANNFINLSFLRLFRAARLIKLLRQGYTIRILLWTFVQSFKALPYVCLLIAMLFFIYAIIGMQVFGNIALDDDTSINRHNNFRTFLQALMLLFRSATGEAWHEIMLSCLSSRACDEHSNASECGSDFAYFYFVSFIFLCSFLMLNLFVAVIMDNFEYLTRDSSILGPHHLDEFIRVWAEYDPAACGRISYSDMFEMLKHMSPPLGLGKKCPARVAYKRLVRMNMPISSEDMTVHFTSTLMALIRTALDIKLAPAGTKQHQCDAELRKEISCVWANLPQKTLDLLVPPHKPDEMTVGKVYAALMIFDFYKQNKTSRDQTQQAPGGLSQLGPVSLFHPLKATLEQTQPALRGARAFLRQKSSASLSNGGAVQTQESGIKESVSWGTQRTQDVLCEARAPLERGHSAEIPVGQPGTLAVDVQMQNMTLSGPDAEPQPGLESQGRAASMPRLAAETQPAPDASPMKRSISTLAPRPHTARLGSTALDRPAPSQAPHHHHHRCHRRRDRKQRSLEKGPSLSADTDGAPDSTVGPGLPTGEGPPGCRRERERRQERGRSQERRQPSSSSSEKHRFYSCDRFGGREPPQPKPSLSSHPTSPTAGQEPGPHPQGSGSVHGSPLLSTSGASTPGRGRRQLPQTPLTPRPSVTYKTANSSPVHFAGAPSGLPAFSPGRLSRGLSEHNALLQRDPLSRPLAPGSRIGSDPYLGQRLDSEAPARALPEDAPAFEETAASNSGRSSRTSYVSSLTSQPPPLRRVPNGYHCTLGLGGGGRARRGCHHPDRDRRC

Regarding “calcium channel CaV2.2 (from UniProt Q05152 1-2339) (natural protein)”, the figures for the reduction of the binding relative to CT in assay [1] and in assay [2] were 61.7% and 79.5%, respectively.
